Laboratory results as given in patent US7012060B1, “TNF receptor and steroid hormone in a combined therapy” (priority 1995, dated 2006).
Marks after values point to notes of the source that are not given here.

B1: TBP-1: urinary as well as recombinant TBP-1 (derived from both CHO and E. Coli cells), literature (protein, UniProt P19438 30-211, looked up)
extracellular domain: LVPHLGDREKRDSVCPQGKYIHPQNNSICCTKCHKGTYLYNDCPGPGQDTDCRECESGSFTASENHLRHCLSCSKCRKEMGQVEISSCTVDRDTVCGCRKNQYRHYWSENLFQCFNCSLCLNGTVHLSCQEKQNTVCTCHAGFFLRENECVSCSNCKKSLECTKLCLPQIENVKGTEDSGTT
modifications: extracellular domain
notes: urinary as well as recombinant TBP-1 (derived from both CHO and E. Coli cells), literature
B2: r-hTBP-1: CHO recombinant human TBP-1, the extracellular soluble domain of TNF-R1 (TNF Binding Protein-1) (protein, UniProt P19438 30-211, looked up)
extracellular domain: B1 extracellular domain
modifications: extracellular domain

Columns and labels:
septic shock = conditions: urinary and recombinant TBP-1 (CHO and E. Coli); cited from earlier work
[1] = system: septic shock induced by LPS + D-Galactosamine, in mice; assay: LPS+D-Galactosamine-induced septic shock model; type: in vivo, SPF female BALB/c inbred mice
Protocol: The experiments were carried out in vivo on mice. The septic shock was induced by an i.p. administration of a mixture of LPS (0.1 μg/mouse) and D-Galactosamine (18 mg/mouse).
The treatment schedule for r-hTBP-1 based on repeated administrations (the total dose was divided into 4 administrations given at time 0 and […] and 24 hours after), was adopted. CHO r-hTBP-1 was tested, alone or in combination with DHEA, at dose levels of 62.5 and 125 μg/mouse (total dose).
DHEA was tested both in a single administration injected i.p. one hour before and contemporaneously to the septic shock-inducing agent at doses encompassed between 100 and 2.000 μg/mouse and in repeated treatment with the total dose (250 μg/mouse) divided into 4 injections given within 24 hours.
The above treatment schedules of DHEA (doses from 250 to 1,500 μl g/mouse) were followed also in combination with r-hTBP-1 which was tested at the total dose varying from 62.5 to 125 μg/mouse (divided into 4 administrations).
SPF female BALB/c inbred mice, 6–8 weeks (about 18–20 g b.w.), from Charles River were used throughout the whole study after an acclimatisation period of at least 7 days.
Unless otherwise specified, in all the experiments the mice were randomly divided into groups of 10 animals each.
Both substances were dissolved in saline. The mixture of LPS (0.1 μg/mouse) and D-Galactosamine (18 mg/mouse) was prepared by mixing equal volumes of these substances. The mixture was subsequently injected to animals by the i.p. route. This dose was selected under precious experiments as that inducing around 80% mortality calculated as the number of dead vs. total number of mice for each croup. The lethality was monitored after 24, 48, 72 and 96 hours and at day 7 post-treatment.
The drug was diluted in saline and injected by repeated administrations, i.e. i.v. immediately before the inoculum of LPS plus D-Galactosamine and s.c. 3, 6 and 24 hours later.
The effects of DHEA, alone or in combination with r-hTBP-1, were assayed after single i.p. administrations at different times in respect to LPS+D-Galactosamine injection; in particular, it was administered 1 hour before and contemporaneously to the septic shock-inducing agent.
A repeated treatment schedule was also investigated in which DHEA was administered at time 0 (septic shock induction) and 3, 6 and 24 hours later. DHEA was initially vehicled in a mixture of 2.5% alcohol and 10% rabbit serum in saline. To improve the solubility and standardise the preparation, the steroid was successively dispersed in a mixture of 2.5% alcohol and 10% phospholipid emulsion in saline.
The primary end point was the survival rate at 48 hours after induction of septic shock. The comparison of the effects of each treatment group vs. controls and among treatment groups was effected by Fisher's exact test, one-tailed. The same comparison was also performed at the other time points. The results in each treatment group were expressed as percent survival.
In all the experiments, percent survival values were calculated using the survival Tables for the follow up studies (Armitage P. Cap. XIV. Tavole di sopravvivenza in Statistica Medica, Feltrinelli, Milano). The χ^2-test was applied to each observation time by comparing the DHEA+r-hTBP-1 groups to the other groups.

Molecule | in vivo protective effects (septic shock) | % cumulative survival ([1]; Table 2, r-hTBP-1 125 μg/mouse, time 0 (i.v.) and 3, 6, 24 hours (s.c.), 24 hrs) [%] | % cumulative survival ([1]; Table 2, r-hTBP-1 125 μg/mouse, time 0 (i.v.) and 3, 6, 24 hours (s.c.), 48 hrs) [%] | % cumulative survival ([1]; Table 2, r-hTBP-1 125 μg/mouse, time 0 (i.v.) and 3, 6, 24 hours (s.c.), 72 hrs) [%] | % cumulative survival ([1]; Table 2, r-hTBP-1 125 μg/mouse, time 0 (i.v.) and 3, 6, 24 hours (s.c.), 96 hrs) [%] | % cumulative survival ([1]; Table 4, r-hTBP-1 62.5 μg/mouse, time 0 (i.v.) and 3, 6, 24 hours (s.c.), 24 hr) [%] | % cumulative survival ([1]; Table 4, r-hTBP-1 62.5 μg/mouse, time 0 (i.v.) and 3, 6, 24 hours (s.c.), 48 hr) [%] | % cumulative survival ([1]; Table 4, r-hTBP-1 62.5 μg/mouse, time 0 (i.v.) and 3, 6, 24 hours (s.c.), 72 hr) [%] | % cumulative survival ([1]; Table 4, r-hTBP-1 62.5 μg/mouse, time 0 (i.v.) and 3, 6, 24 hours (s.c.), 96 hr) [%] | % cumulative survival ([1]; Table 5 group C, r-hTBP-1 62.5 μg, time 0 i.v. and 3, 6, 24 hours s.c., 24 hrs, 1st exp.) | % cumulative survival ([1]; Table 5 group C, r-hTBP-1 62.5 μg, time 0 i.v. and 3, 6, 24 hours s.c., 24 hrs, 2nd exp.) | % cumulative survival ([1]; Table 5 group C, r-hTBP-1 62.5 μg, time 0 i.v. and 3, 6, 24 hours s.c., 48 hrs, 1st exp.) | % cumulative survival ([1]; Table 5 group C, r-hTBP-1 62.5 μg, time 0 i.v. and 3, 6, 24 hours s.c., 48 hrs, 2nd exp.) [%] | % cumulative survival ([1]; Table 5 group C, r-hTBP-1 62.5 μg, time 0 i.v. and 3, 6, 24 hours s.c., 72 hrs, 1st exp.) | % cumulative survival ([1]; Table 5 group C, r-hTBP-1 62.5 μg, time 0 i.v. and 3, 6, 24 hours s.c., 72 hrs, 2nd exp.) [%] | % cumulative survival ([1]; Table 5 group C, r-hTBP-1 62.5 μg, time 0 i.v. and 3, 6, 24 hours s.c., 96 hrs, 1st exp.) | % cumulative survival ([1]; Table 5 group C, r-hTBP-1 62.5 μg, time 0 i.v. and 3, 6, 24 hours s.c., 96 hrs, 2nd exp.) [%] | protection (survival) ([1]; r-hTBP-1 62.5 μg/mouse alone) [%] | survival ([1]; r-hTBP-1 125 μg/mouse alone (suboptimal dose)) | survival ([1]; text (conclusions), r-hTBP-1 125 μg/mouse total dose alone) [%]
B1 | protective effects | – | – | – | – | – | – | – | – | – | – | – | – | – | – | – | – | – | – | –
B2 | – | 50 | 50 | 50 | 50 | 20 | 10 | 0 | 0 | 90^a % | 70^a % | 80^a % | 40 | 70^a % | 30 | 70^a % | 30 | 20 | about 50% | 50
